Assay results as given in patent US12534510B2, “Peptide-receptive MHC-I complex compositions and methods” (priority 2020, dated 2026).
Blank lines part the entries; values can stand above or below the substance they belong to.

How the values were obtained:
[1] = target: HLA-A*24:02/TAPBPR complex (Homo sapiens, UniProt P04439, D101N/D140Y/D185E/E176V/E190D/F33S/G103R/G107R/I119L/I121M/I306V/K335N/L105A/L180Q/L300P/N151K/N90K/Q86E/Q94H/R106L/R138H/R89G/T104I/T345S/V100E/W191G/Y123F); test: Native gel dissociation of MHC-I/TAPBPR complex by peptide; type: biochemical; conditions: HLA-A*24:02 refolded with gNEF, 10-fold molar excess peptide
[2] = nanoDSF melting temperatures; type: physicochemical
Experimental: In a volume of 20 μl, 1 μM peptide deficient HLA-A*02:01/TAPBPR was incubated with 20 μM of various peptides (FIG. 22) in a buffer of 20 mM sodium phosphate pH 7.2, 100 mM NaCl, 0.02% TWEEN-20 for at least one hour. 10 ul of each sample was loaded on the Prometheus NT.48 instrument (NanoTemper™) using the high sensitivity capillaries. NanoDSF™ measurements are performed using a temperature ramp rate of 1° C./min from 25° C. to 95° C. and an LED intensity of 20%. Data was analyzed using the PR Control software (NanoTemper™). Melting temperatures (Tm values) correspond to the inflection points of the first derivative of the 330/350 nm fluorescence ratio. Experiments were performed in duplicates and the shaded areas (FIG. 17b) are representative of the error.

H-2D^d/TAPBPR complex = H-2D^d/TAPBPR complex (Mus musculus, UniProt P01900)
H-2D^d = H-2D^d (Mus musculus, UniProt P01900); conditions: cited from earlier work
H-2L^d/TAPBPR complex = target: T1, H-2L^d/TAPBPR complex (Mus musculus, UniProt P01897); test: SEC TAPBPR binding assay with LC-MS peptide occupancy; design: species or system murine; conditions: 10 mM Gly-Phe dipeptide (GF)
T1 construct: Plasmid DNA encoding the luminal domain of class I MHC (MHC-I) heavy chains H-2D^d, HLA-A*02:01, H-2L^d; made in house; Drosophila S2 for TAPBPR
Experimental: Complexes were resolved on an Superdex 200 10/300 increase column (GE healthcare) at a flow rate of 0.5 mL/min in 100 mM NaCl and 20 mM sodium phosphate pH 7.2 at room temperature. MHC-I/TAPBPR complexes eluted at 26.5 min.

[3] = test system: B4.2.3 TCR transgenic T cell line; test: Tetramer staining by flow cytometry; type: cell-based, murine; design: dose or concentration left out as unconfirmed; conditions: stoichiometric (1:1) or catalytic (1:100) TAPBPR:MHC ratio
[4] = target: HLA-A*68:02/TAPBPR complex (Homo sapiens, UniProt P04439, A269V/D140Y/D185E/E176V/E277Q/E87N/F33Y/G231S/I121R/I166T/I218V/L180W/L300P/L318F/N151K/P208A/P217A/Q86R/R138H/R169H/S129P/T345S/V36M); test: Native gel dissociation of MHC-I/TAPBPR complex by peptide; type: biochemical; conditions: HLA-A*68:02 refolded with gTAX, 10-fold molar excess peptide

Substance: RYPLTFGWCF (Sequence is synthesized) [Nef134-10]
effect of peptide on MHC-I/TAPBPR complex [1]: complex dissociation

Substance: TAPBPR: chaperone protein homologue of Tapasin, luminal domain expressed in Drosophila S2 cells
Tm (nanoDSF inflection point) [2]: 52.5 °C

Substance: GPGRAFVTI [gP18-I10]
fate of bound peptide in the presence of TAPBPR (H-2D^d/TAPBPR complex): dissociated in the presence of TAPBPR | increase in the peptide off-rate relative to full-length P18-I10 peptide (H-2D^d): 100 fold

Substance: PNVNIHNF
fate of bound peptide in the presence of TAPBPR (H-2L^d/TAPBPR complex): remained bound

Substance: AGPARAAAL (Sequence is synthesized)
tetramer staining [3]: No staining

Substance: QLSPFPFDL [QL9]
fate of bound peptide in the presence of TAPBPR (H-2L^d/TAPBPR complex): empty H-2L^d/TAPBPR complexes were obtained

effect of peptide on MHC-I/TAPBPR complex [1]: remain bound | effect of peptide on MHC-I/TAPBPR complex [4]: remain bound
Substance: YPNVNIHNF (Sequence is synthesized) [p29, irrelevant, nonspecific peptide used as negative control]

effect of peptide on MHC-I/TAPBPR complex [1]: complex dissociation
Substance: QYNPIRTTF (Sequence is synthesized) [PHOX2B]
